The assay has as its target T1, GST-β-catenin (GST-β-cat (aa1–781)) (UniProt P35222 1-781).
T1 construct: β-catenin aa1–781; the cDNA may be mouse (surmise); source: E. coli XL1 blue or BL21-RE4, purified (glutathione-agarose)
T1 sequence (looked up): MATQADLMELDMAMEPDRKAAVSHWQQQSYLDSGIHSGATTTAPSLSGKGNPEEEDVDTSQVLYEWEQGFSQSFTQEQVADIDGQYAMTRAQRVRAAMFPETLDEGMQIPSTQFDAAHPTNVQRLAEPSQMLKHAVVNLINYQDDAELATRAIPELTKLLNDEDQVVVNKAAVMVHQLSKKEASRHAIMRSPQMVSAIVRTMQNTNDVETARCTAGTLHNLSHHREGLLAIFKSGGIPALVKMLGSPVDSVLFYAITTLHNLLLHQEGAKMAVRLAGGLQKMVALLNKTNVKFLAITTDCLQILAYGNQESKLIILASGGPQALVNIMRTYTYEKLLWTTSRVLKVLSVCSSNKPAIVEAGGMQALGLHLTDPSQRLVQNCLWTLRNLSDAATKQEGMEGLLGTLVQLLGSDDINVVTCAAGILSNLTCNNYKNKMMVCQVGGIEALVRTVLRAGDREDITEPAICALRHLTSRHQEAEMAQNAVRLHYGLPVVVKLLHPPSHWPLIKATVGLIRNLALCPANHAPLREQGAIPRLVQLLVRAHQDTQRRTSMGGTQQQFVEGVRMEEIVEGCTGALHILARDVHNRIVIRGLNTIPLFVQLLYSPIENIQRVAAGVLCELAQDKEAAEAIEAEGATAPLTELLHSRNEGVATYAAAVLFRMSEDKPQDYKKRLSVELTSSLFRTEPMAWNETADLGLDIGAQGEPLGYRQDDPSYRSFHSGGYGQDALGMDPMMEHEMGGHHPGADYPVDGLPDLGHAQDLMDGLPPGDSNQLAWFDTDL
Nature of the assay: pull-down; 4 μg GST or GST fusion protein with 5 μg MBP fusion protein, 150 mM NaCl, 20 mM imidazole or HEPES pH 8.0, 2 mM MgCl2, 300 mM sucrose, 0.25% Triton X-100, 20 min at 4 °C; glutathione-agarose beads; western blot with anti-MBP. The settings on record: both partners purified.

B1: MBP-dNitFhit (natural protein, D. melanogaster, UniProt O76464 1-460, looked up)
chain: MSTLVNTTRRSIVIAIHQQLRRMSVQKRKDQSATIAVGQMRSTSDKAANLSQVIELVDRAKSQNACMLFLPECCDFVGESRTQTIELSEGLDGELMAQYRELAKCNKIWISLGGVHERNDQKIFNAHVLLNEKGELAAVYRKLHMFDVTTKEVRLRESDTVTPGYCLERPVSTPVGQIGLQICYDLRFAEPAVLLRKLGANLLTYPSAFTYATGKAHWEILLRARAIETQCFVVAAAQIGWHNQKRQSWGHSMIVSPWGNVLADCSEQELDIGTAEVDLSVLQSLYQTMPCFEHRRNDIYALTAYNLRSKEPTQDRPFATNIVDKRTIFYESEHCFAFTNLRCVVKGHVLVSTKRVTPRLCGLDCAEMADMFTTVCLVQRLLEKIYQTTSATVTVQDGAQAGQTVPHVHFHIMPRRLGDFGHNDQIYVKLDERAEEKPPRTIEERIEEAQIYRKFLTDIS
notes: Drosophila melanogaster NitFhit, amplified from the intronless genomic DNA; source: E. coli XL1 blue or BL21-RE4, purified (amylose resin)
For the molecule B1, the binding result is “binds”.
